Data from PMC6350941 (Cell reports, 2019).
Read-outs that look alike come from different tables or passages of the source.

Legend:
[1] = target: chicken FANCD2 (His-tagged) (chicken, UniProt Q68Y81 1-1439); test: SEC
[2] = target: T1, FANCI (human);FANCD2 (human) (human;human, UniProt Q9NVI1;Q9BXW9 1-1328;1-1451, |); test: EMSA
[3] = target: FANCI (chicken);FANCD2 (chicken) (chicken;chicken, UniProt B0I564;Q68Y81 1-1338;1-1439, |); test: EMSA
FANCI (human) = FANCI (human) (human, UniProt Q9NVI1 1-1328); test: EMSA
FANCI (human), sequence (Q9NVI1 whole entry): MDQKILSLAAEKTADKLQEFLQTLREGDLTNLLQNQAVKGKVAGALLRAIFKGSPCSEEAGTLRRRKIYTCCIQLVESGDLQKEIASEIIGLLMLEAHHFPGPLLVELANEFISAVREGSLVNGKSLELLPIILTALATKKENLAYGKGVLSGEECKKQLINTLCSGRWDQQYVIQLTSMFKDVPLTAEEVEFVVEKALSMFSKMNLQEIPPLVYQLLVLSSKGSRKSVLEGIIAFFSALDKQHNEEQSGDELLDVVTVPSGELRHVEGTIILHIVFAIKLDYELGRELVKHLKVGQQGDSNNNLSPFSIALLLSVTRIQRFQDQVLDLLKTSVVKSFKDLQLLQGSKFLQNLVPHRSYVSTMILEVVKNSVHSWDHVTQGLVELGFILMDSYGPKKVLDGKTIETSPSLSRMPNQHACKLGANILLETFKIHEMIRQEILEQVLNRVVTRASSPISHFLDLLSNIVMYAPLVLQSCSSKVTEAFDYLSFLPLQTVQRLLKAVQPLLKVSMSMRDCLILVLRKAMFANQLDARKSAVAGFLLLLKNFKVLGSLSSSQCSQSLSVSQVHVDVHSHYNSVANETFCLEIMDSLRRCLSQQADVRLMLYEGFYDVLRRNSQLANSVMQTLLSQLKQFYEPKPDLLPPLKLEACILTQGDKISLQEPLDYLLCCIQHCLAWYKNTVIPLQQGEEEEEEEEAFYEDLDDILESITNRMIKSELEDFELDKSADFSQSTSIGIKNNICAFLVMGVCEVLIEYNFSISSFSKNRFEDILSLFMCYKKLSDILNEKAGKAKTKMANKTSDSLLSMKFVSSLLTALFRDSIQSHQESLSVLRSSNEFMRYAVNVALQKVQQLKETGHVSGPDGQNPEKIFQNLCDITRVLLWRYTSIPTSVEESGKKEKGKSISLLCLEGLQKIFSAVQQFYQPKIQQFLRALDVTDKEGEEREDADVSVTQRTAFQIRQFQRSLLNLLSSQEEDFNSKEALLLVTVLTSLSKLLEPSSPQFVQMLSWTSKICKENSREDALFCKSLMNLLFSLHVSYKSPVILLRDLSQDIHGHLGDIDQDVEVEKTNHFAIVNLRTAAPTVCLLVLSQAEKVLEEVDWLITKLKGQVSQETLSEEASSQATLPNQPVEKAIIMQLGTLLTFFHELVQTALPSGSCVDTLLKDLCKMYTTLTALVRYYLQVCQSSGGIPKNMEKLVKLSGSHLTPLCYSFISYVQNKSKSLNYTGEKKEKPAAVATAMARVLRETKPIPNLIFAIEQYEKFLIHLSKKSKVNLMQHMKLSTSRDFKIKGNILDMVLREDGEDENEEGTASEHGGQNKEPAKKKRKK

FANCI (chicken) = target: T2, FANCI (chicken) (chicken, UniProt B0I564 1-1338); test: EMSA
T2 sequence: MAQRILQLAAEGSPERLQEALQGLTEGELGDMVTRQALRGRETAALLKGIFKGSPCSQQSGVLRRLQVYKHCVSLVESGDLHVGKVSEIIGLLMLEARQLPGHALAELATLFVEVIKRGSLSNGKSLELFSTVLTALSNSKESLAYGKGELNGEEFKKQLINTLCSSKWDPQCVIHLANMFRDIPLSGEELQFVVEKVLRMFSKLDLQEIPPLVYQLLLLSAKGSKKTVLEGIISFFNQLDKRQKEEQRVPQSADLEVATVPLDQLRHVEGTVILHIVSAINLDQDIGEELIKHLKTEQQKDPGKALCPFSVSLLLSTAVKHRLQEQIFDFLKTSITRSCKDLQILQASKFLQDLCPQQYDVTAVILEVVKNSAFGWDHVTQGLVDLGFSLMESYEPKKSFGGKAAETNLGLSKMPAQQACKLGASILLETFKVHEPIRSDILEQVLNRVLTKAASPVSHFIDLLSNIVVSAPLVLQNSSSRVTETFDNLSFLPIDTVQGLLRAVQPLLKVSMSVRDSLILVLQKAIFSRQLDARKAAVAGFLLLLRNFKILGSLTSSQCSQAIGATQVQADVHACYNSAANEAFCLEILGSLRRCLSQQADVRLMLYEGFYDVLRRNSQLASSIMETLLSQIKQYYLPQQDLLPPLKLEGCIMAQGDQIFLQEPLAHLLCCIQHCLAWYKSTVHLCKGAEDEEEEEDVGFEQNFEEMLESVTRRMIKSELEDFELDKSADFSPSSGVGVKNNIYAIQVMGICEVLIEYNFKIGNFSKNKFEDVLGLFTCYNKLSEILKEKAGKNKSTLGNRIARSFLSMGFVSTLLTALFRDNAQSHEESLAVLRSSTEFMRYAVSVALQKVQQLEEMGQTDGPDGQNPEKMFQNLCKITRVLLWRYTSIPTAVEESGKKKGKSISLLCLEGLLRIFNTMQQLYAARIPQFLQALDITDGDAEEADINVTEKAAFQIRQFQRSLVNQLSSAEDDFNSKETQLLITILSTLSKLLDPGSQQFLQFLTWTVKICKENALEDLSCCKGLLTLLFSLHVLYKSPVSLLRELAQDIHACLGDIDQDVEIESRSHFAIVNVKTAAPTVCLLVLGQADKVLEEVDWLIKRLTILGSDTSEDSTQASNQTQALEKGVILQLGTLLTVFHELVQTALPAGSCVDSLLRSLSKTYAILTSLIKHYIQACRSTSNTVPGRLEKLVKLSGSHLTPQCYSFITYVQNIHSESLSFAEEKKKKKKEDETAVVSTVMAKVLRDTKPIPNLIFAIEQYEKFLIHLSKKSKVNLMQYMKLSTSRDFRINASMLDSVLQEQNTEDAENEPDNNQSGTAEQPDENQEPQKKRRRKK

FANCD2 (chicken) = FANCD2 (chicken) (chicken, UniProt Q68Y81 1-1439); test: EMSA
FANCD2 (chicken), sequence (Q68Y81 whole entry): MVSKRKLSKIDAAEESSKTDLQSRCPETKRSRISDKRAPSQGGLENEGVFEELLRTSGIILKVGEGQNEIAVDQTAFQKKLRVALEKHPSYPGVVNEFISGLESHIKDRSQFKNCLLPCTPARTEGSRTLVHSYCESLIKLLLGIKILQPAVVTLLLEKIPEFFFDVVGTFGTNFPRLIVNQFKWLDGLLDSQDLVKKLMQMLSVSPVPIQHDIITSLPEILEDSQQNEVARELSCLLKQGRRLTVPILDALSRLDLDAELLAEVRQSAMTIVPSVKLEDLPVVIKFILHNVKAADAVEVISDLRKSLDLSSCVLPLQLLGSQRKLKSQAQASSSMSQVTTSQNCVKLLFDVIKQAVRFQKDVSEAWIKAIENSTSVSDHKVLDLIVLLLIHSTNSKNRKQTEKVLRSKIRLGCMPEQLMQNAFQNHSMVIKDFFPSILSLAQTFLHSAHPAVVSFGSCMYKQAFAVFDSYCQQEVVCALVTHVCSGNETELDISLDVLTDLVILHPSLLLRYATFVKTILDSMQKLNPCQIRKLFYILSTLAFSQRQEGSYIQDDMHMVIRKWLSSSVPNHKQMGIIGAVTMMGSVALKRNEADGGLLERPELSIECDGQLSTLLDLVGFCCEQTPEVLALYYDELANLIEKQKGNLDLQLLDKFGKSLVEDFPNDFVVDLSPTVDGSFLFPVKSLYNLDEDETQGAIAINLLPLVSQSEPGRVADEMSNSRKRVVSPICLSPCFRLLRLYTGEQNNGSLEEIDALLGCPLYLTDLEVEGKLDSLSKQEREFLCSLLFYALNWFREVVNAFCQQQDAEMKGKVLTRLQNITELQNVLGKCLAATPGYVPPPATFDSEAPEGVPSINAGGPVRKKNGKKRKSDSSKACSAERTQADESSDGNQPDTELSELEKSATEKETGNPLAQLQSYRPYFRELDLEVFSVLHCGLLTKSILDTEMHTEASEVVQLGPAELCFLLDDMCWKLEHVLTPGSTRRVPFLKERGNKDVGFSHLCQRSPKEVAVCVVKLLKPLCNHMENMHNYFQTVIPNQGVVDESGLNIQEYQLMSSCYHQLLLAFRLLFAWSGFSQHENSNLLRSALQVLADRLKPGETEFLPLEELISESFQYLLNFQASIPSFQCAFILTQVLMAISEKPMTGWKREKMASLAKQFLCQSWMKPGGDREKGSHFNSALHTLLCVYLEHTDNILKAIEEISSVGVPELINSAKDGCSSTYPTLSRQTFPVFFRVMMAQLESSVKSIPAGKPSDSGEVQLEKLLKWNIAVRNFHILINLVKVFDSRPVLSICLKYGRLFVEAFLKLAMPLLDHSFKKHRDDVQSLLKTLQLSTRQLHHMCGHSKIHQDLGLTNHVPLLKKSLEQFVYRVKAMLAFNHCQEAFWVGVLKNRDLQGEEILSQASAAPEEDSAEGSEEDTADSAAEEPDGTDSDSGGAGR

[4] = target: T1, FANCI (human);FANCD2 (human); test: EMSA; remark: listed apart in the source
[5] = target: T1, FANCI (human);FANCD2 (human); test: EMSA; remark: listed apart in the source
[6] = target: T1, FANCI (human);FANCD2 (human); test: EMSA; remark: listed apart in the source
[7] = target: T1, FANCI (human);FANCD2 (human); test: EMSA; remark: listed apart in the source

FANCI (chicken);FANCD2 (chicken), sequence (Q68Y81 whole entry, one chain of several): as the sequence (Q68Y81 whole entry) above
T1 sequence (Q9NVI1 whole entry, chain 1 of 2): as the sequence (Q9NVI1 whole entry) above
T1 sequence (Q9BXW9 whole entry, chain 2 of 2): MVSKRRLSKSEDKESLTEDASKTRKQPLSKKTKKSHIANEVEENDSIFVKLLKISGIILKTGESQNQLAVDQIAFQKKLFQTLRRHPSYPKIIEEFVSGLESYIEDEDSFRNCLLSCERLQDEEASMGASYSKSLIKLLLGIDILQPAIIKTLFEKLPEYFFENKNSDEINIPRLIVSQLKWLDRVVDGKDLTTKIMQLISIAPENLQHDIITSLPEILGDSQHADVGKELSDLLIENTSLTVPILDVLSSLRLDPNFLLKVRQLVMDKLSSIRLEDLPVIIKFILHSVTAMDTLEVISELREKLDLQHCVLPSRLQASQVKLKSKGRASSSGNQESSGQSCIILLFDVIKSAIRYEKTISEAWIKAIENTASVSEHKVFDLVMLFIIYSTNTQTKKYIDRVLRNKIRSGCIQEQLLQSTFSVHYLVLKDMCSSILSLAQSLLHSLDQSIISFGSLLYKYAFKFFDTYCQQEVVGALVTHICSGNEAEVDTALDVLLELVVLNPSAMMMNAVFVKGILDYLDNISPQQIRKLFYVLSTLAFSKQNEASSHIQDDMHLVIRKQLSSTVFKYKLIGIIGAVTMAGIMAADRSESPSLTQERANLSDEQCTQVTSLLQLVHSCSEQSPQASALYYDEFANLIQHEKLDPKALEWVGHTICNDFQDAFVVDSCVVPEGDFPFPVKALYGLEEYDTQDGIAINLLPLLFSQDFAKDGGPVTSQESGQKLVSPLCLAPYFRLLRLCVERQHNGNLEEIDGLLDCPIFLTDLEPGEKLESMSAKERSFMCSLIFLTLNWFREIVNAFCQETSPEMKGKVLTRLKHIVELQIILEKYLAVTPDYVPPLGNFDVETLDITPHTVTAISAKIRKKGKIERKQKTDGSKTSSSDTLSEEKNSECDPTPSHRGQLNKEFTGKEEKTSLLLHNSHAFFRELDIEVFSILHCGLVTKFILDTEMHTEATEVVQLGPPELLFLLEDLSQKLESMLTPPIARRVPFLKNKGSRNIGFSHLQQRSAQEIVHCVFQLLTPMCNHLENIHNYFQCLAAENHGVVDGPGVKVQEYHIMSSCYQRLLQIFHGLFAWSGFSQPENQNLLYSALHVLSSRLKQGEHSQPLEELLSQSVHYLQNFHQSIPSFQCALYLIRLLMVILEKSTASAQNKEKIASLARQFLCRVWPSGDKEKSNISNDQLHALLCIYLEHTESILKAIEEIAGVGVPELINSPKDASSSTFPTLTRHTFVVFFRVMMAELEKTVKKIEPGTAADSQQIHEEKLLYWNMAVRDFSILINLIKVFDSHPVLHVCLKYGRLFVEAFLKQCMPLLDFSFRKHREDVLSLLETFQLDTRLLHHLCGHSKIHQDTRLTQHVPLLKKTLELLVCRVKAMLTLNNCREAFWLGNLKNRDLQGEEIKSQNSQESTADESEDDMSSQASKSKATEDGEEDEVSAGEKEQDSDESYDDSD
chicken FANCD2 (His-tagged), sequence (Q68Y81 whole entry): as the sequence (Q68Y81 whole entry) above

B1: chicken FANCI (His-tagged) (natural protein, UniProt B0I564 1-1338, looked up)
chain: MAQRILQLAAEGSPERLQEALQGLTEGELGDMVTRQALRGRETAALLKGIFKGSPCSQQSGVLRRLQVYKHCVSLVESGDLHVGKVSEIIGLLMLEARQLPGHALAELATLFVEVIKRGSLSNGKSLELFSTVLTALSNSKESLAYGKGELNGEEFKKQLINTLCSSKWDPQCVIHLANMFRDIPLSGEELQFVVEKVLRMFSKLDLQEIPPLVYQLLLLSAKGSKKTVLEGIISFFNQLDKRQKEEQRVPQSADLEVATVPLDQLRHVEGTVILHIVSAINLDQDIGEELIKHLKTEQQKDPGKALCPFSVSLLLSTAVKHRLQEQIFDFLKTSITRSCKDLQILQASKFLQDLCPQQYDVTAVILEVVKNSAFGWDHVTQGLVDLGFSLMESYEPKKSFGGKAAETNLGLSKMPAQQACKLGASILLETFKVHEPIRSDILEQVLNRVLTKAASPVSHFIDLLSNIVVSAPLVLQNSSSRVTETFDNLSFLPIDTVQGLLRAVQPLLKVSMSVRDSLILVLQKAIFSRQLDARKAAVAGFLLLLRNFKILGSLTSSQCSQAIGATQVQADVHACYNSAANEAFCLEILGSLRRCLSQQADVRLMLYEGFYDVLRRNSQLASSIMETLLSQIKQYYLPQQDLLPPLKLEGCIMAQGDQIFLQEPLAHLLCCIQHCLAWYKSTVHLCKGAEDEEEEEDVGFEQNFEEMLESVTRRMIKSELEDFELDKSADFSPSSGVGVKNNIYAIQVMGICEVLIEYNFKIGNFSKNKFEDVLGLFTCYNKLSEILKEKAGKNKSTLGNRIARSFLSMGFVSTLLTALFRDNAQSHEESLAVLRSSTEFMRYAVSVALQKVQQLEEMGQTDGPDGQNPEKMFQNLCKITRVLLWRYTSIPTAVEESGKKKGKSISLLCLEGLLRIFNTMQQLYAARIPQFLQALDITDGDAEEADINVTEKAAFQIRQFQRSLVNQLSSAEDDFNSKETQLLITILSTLSKLLDPGSQQFLQFLTWTVKICKENALEDLSCCKGLLTLLFSLHVLYKSPVSLLRELAQDIHACLGDIDQDVEIESRSHFAIVNVKTAAPTVCLLVLGQADKVLEEVDWLIKRLTILGSDTSEDSTQASNQTQALEKGVILQLGTLLTVFHELVQTALPAGSCVDSLLRSLSKTYAILTSLIKHYIQACRSTSNTVPGRLEKLVKLSGSHLTPQCYSFITYVQNIHSESLSFAEEKKKKKKEDETAVVSTVMAKVLRDTKPIPNLIFAIEQYEKFLIHLSKKSKVNLMQYMKLSTSRDFRINASMLDSVLQEQNTEDAENEPDNNQSGTAEQPDENQEPQKKRRRKK
binding result [1]: binds

B2: ssDNA / ssDNA(G28) (ssDNA)
DNA: TGATAAGAGGTCATTTGAATTCATGGCTTAGAGCTTAATTGCTGAATCTGGTGCTGGGAT
binding result [2]: binds

B3: ssRNA / ssRNA(G28) (ssRNA)
RNA: UGAUAAGAGGUCAUUUGAAUUCAUGGCUUAGAGCUUAAUUGCUGAAUCUGGUGCUGGGAU
binding result [2]: binds | binding result [3]: binds | binding result (FANCI (human)): binds | binding result (FANCI (chicken)): binds | binding result (FANCD2 (chicken)): binds

B4: R-loop(G45) = R-loop(GGC) (mixed)
DNA 1: CATTGCATATTTAAAACATGTTGGAGTGAGTGCGTGGCTGAGATCGGGATTGCTGAGTCTGGTGCTTCAAATGACCTCTTATCAAGTGAC
RNA: CGUGGUCUGAGUCGUUAGGGCUAGAGUCGGUGCGUGAGUG
DNA 2: GTCACTTGATAAGAGGTCATTTGAACACTCACGCACCGACTCTAGCCCTAACGACTCAGACCACGTCCAACATGTTTTAAATATGCAATG
binding result [4]: binds

B5: R-loop(G30_G-quad) (mixed)
DNA 1: CATTGCATATTTAAAACATGTTGGATTTAATTCAGGGCTTAGGGCTTGGGTACTGGGTCTAATACTTCAAATGACCTCTTATCAAGTGAC
RNA: CGUGGUCUGAGUCGUUAGGGCUAGAGUCGGUGCGUGAGUG
DNA 2: GTCACTTGATAAGAGGTCATTTGAACACTCACGCACCGACTCTAGCCCTAACGACTCAGACCACGTCCAACATGTTTTAAATATGCAATG
binding result [5]: binds

B6: dsDNA / dsDNA(G28) (dsDNA)
DNA 1: TGATAAGAGGTCATTTGAATTCATGGCTTAGAGCTTAATTGCTGAATCTGGTGCTGGGAT
DNA 2: ATCCCAGCACCAGATTCAGCAATTAAGCTCTAAGCCATGAATTCAAATGACCTCTTATCA
binding result [2]: binds

B7: D-loop(GGC) (structured_DNA)
DNA 1: CATTGCATATTTAAAACATGTTGGAGTGAGTGCGTGGCTGAGATCGGGATTGCTGAGTCTGGTGCTTCAAATGACCTCTTATCAAGTGAC
DNA 2: CGTGGTCTGAGTCGTTAGGGCTAGAGTCGGTGCGTGAGTG
DNA 3: GTCACTTGATAAGAGGTCATTTGAACACTCACGCACCGACTCTAGCCCTAACGACTCAGACCACGTCCAACATGTTTTAAATATGCAATG
binding result [6]: binds

B8: R-loop(GAT) (mixed)
DNA 1: CATTGCATATTTAAAACATGTTGGAGTGAGTGCGTGGCTGAGATCGGGATTGCTGAGTCTGGTGCTTCAAATGACCTCTTATCAAGTGAC
RNA: AAAAAAAUAAAAAAAUAAAAAAAAUAAAAAAAUAAAAAAA
DNA 2: GTCACTTGATAAGAGGTCATTTGAATTTTTTTATTTTTTTATTTTTTTTATTTTTTTATTTTTTTTCCAACATGTTTTAAATATGCAATG
binding result [7]: binds

B9: dsRNA / dsRNA(G28) (dsRNA)
RNA 1: UGAUAAGAGGUCAUUUGAAUUCAUGGCUUAGAGCUUAAUUGCUGAAUCUGGUGCUGGGAU
RNA 2: AUCCCAGCACCAGAUUCAGCAAUUAAGCUCUAAGCCAUGAAUUCAAAUGACCUCUUAUCA
binding result [3]: binds | binding result (FANCI (human)): binds | binding result (FANCI (chicken)): binds | binding result (FANCD2 (chicken)): binds

B10: RNA:DNA hybrid (DNA:RNA)
DNA: TGATAAGAGGTCATTTGAATTCATGGCTTAGAGCTTAATTGCTGAATCTGGTGCTGGGAT
RNA: AUCCCAGCACCAGAUUCAGCAAUUAAGCUCUAAGCCAUGAAUUCAAAUGACCUCUUAUCA
binding result [3]: binds | binding result (FANCI (human)): binds | binding result (FANCI (chicken)): binds | binding result (FANCD2 (chicken)): binds

B11: ssDNA(G48) (ssDNA)
DNA: GGATGAGAGGGCATGTGAGTGCGTGGCTGAGAGCGGGATTGCTGAGTCTGGTGCTGGGAT
binding result [2]: binds

B12: ssRNA(G48) (ssRNA)
RNA: GGAUGAGAGGGCAUGUGAGUGCGUGGCUGAGAGCGGGAUUGCUGAGUCUGGUGCUGGGAU
binding result [2]: binds
